Measurements: US20130109581A1, “POSITIVELY CHARGED SPECIES AS BINDING REAGENTS IN THE SEPARATION OF PROTEIN AGGREGATES FROM MONOMERS” (priority 2009, published 2013)
Where two headings read alike, the source gives them in different places. Where no end group is shown, it is not given here. [ ]: non-standard residue; d: D form. Ahx = NCCCCCC(=O)O

Experiments:
Assay type in all cases: binding
[1] = target: T1, normal CSF Aβ42 (Homo sapiens, UniProt P05067); assay: NMPA with detergent washing: background from unspiked CSF, Abeta42; details: CSF; PSR1 beads treated with detergent post capture
T1 construct: reduced the detection of normal CSF Aβ42 to the background levels; from tissue; host or cells: pooled normal cerebrospinal fluid
Description: Second, two neutral detergents, polyethylene glycol sorbitan monolaurate (available as TWEEN 20 from Sigma-Aldrich, St. Louis, Mo.) and n-tetradecyl-N,N-dimethyl-3-ammonio-1-propanesulfonate (available as ZWITTERGENT 3-14 from EMI) Chemicals, Gibbstown, N.J.) were used to treat the globulomer-spiked CSF samples that had been contacted with PSR1 beads. For each assay, a mixture of 30 μl of PSR1 beads (coated at about 7-12 nmol PSR1 ligand/mg DYNAL beads, which were used in this example and in the following examples unless otherwise stated) and 70 μl of 1×TBSTT was immediately pipetted into each well on the pulldown plate. The liquid was removed on a magnetic separator. Fifty micro liters of 5×TBSTT was added to each well. The beads were suspended by briefly shaking at 750 rpm. Next […] of TBSTT or CSF sample without globulomer was added to each well. The pulldown plate was sealed and incubated at 37° C. for 1 hour with shaking at 500 rpm. After incubation, the beads were washed 8 times with TBST on the plate washer. After the plate wash, residual TBST buffer was removed from the beads on the magnetic separator. The beads were then incubated with 100 μl of either TBS, 1% Tween20 or 1% Zwittergent 3-14 for 30 minutes at room temperature at 750 rpm, (followed by an additional 8 washes with TBST on the plate washer. After removing residual TBST on the magnetic separator, 20 μl of denaturing solution, typically 0.1-0.15 N NaOH, was added to the beads. The plate was covered with an aluminum foil plate sealer and incubated at 80° C. for 30 minutes with shaking at 750 rpm. After incubation, the plate was cooled to room temperature and twenty micro liters of neutralizing solution, typically 0.12-0.18 M NaH2PO4+0.4% Tween20) was added into each well and the plate was incubated at room temperature for 5 minutes with shaking at 750 rpm. […] MSD Abeta Triplex Assay was preformed according to the manufacturer's instructions.
A summary of the assay results and calculated signal/noise is shown below in Table 17.

[2] = target: Abeta 42 globulomer (Homo sapiens, UniProt P05067); assay: NMPA with detergent washing after PSR1 pulldown: globulomer detection
[3] = target: T2, Abeta 1-42 globulomer (Homo sapiens, UniProt P05067); assay: Globulomer capture assay in CSF (Example 6); details: for globulomer capture: Abeta42 globulomer spiked into CSF, reagents on beads; for 42:40 (signal:noise ratio): 1 ng/ml average reading, ratio of 42 to 40; for 42, 1 ng/ml average reading: Abeta 1-42 globulomer spiked at 1 ng/mL into CSF
T2 construct: beta amyloid (1-42) was monomerized with incubation in hexafluoroisopropanol
Description: (§1) A series of new potential aggregate-specific binding reagents were designed as shown below and conjugated onto magnetic Dynal M270 beads as described in Example 2. Typically 7-12 nmol of ligand (each candidate aggregate-specific binding reagent) was coated onto 1 mg of beads.
(§2) Aliquots of the beads (typically 3 ul) were added to wells of a 96 well plate, followed by sample (with or without Abeta 1-42 globulomer (an Abeta42 oligomer model) spiked in 80:20 CSF:TBSTT, typically 125 ul). The plate was sealed and incubated for 1 hour at 37° C. with shaking. The plate was washed with aqueous solutions of detergent (typically polyethylene glycol sorbitan monolaurate and n-tetradecyl-N,N-dimethyl-3-ammonio-1-propanesulfonate) to remove ubound material and the residual buffer removed. A denaturing solution (typically 0.1-0.15 N NaOH) was added to each well and the plate heated to 80° C. for 30 min with shaking. After cooling the plate to room temperature, a neutralizing buffer (typically 0.12-0.18 M NaH2PO3 in 0.4% TWEEN20,) was added and the plate was shaken briefly at room temperature. The bead eluate was analyzed using either an Aβ42-specific ELISA or the MSD® 96-Well MULTI-SPOT® Human/Rodent [4G8] Abeta Triplex Ultra-Sensitive Assay from Meso Scale Discovery (Gaithersburg, Md.). For the Aβ42-specific assay, the samples were eluted from the beads and a detection antibody (4G8 HRP) was added to a plate bearing the Aβ42-specific antibody 12F4. The plate was incubated for 1 hour, washed, the substrate was added (SuperSignal West Femto Maximum Sensitivity Substrate from Thermo Fisher, Rockville, Md.), and the luminescence was measured. The MSD plate assay was performed in a similar fashion, according to the manufacturer's protocol.
(§3) In this experiment the preferred number of charges within a given scaffold was identified. An Ala/Lys peptide framework was utilized, where the inclusion of each Lys residue increases the peptides' net charge by +1. Six hexapeptides with increasing charge (+1→+6), AAAKAA, AAKKAA, AAKKKA, AKKKKA, AKKKKK, and KKKKKK, were prepared and conjugated on the beads. The ability of these beads to capture Abeta 1-42 globulomer spiked at 1 ng/mL into CSF was tested, and the result is shown in FIG. 25. The globulomer capture level (“42 1 ng/ml” or the closed bars) was compared to the background signal of Abeta 1-42 detected in the unspiked CSF (“42 0 ng/ml”) and the background signal of Abeta 1-40 detected in unspiked CSF (“40 0 ng/ml”) or CSF spiked with AB42 oligomers “40 1 ng/ml”. The charge density, as conjugated to the magnetic beads, of each reagent evaluated in this experiment is shown below in Table 8.

[4] = target: T3, Abeta 1-40 monomer (Homo sapiens, UniProt P05067); assay: Globulomer capture assay in CSF (Example 6): Abeta 1-40 noise; details: for 40, 1 ng/ml average reading: Abeta 1-40 signal (noise), CSF samples; for background monomeric Abeta capture (noise): CSF
T3 construct: Abeta 1-40 monomer capture level; from tissue; host or cells: cerebrospinal fluid (matrix of the assay)
Description: as §1, §2, §3

[5] = 0.5 ng/mL vs 0 ng/mL globulomer
[6] = Abeta 42 RLU at 0.5 ng/mL over average Abeta 40 RLU
[7] = CSF, PSR1 beads treated with detergent post capture

Molecule	globulomer capture [3]	42:40 (signal:noise ratio) [3]	42, 1 ng/ml average reading [3] [RLUs]	40, 1 ng/ml average reading [4] [RLUs]	other results
CCCCCCCCCCCCCC(=O)NCCC[N+](C)(C)CCCS(=O)(=O)[O-] [ASB-14, Amidosulfobetaine-14,3-[N,N-Dimethyl(3-myristoylaminopropyl)ammonio]propanesulfonate]	–	–	–	–	Abeta 42 RLU, 0 ng/mL Abeta 42 globulomer, Average [1]: 89.7 RLU; Abeta 42 RLU, 0.5 ng/mL Abeta 42 globulomer, Average [2]: 779.3 RLU; S/N Abeta 42 globulomer-spiked/Abeta 40 [2]: 2.0; S/N Abeta 42 globulomer-spiked/unspiked [2]: 8.7
n-Dodecyl-N,N-dimethyl-3-ammonio-1-propanesulfonate [ZW3-12]	–	–	–	–	Abeta 42 RLU, 0 ng/mL Abeta 42 globulomer, Average [1]: 90.7 RLU; S/N Abeta 42 globulomer-spiked/unspiked [2, 5]: 7.1; S/N Abeta 42 globulomer-spiked/Abeta 40 [2, 6]: 1.4; Abeta 42 RLU, 0.5 ng/mL Abeta 42 globulomer, Average [2, 7]: 642.0 RLU
KKFKKF	captured globulomers specifically	–	–	–	–
IRYVTHQYILWP	efficient at capturing globulomer	3.2	3242	1011.5	background monomeric Abeta capture (noise) [4]: captured significant amounts of background monomeric species
F-fdb-F-fdb-fdb-fdb	more effective than the δ peptide	–	–	–	–
FoFooo	captured globulomers specifically	–	–	–	–
CCCCCCCCCCCC[N+](C)(C)CC(=O)[O-] [Empigen, N,N-Dimethyl-N-dodecylglycine betaine]	–	–	–	–	Abeta 42 RLU, 0 ng/mL Abeta 42 globulomer, Average [1]: 76.7 RLU; S/N Abeta 42 globulomer-spiked/unspiked [2, 5]: 8.7; S/N Abeta 42 globulomer-spiked/Abeta 40 [2, 6]: 2.6; Abeta 42 RLU, 0.5 ng/mL Abeta 42 globulomer, Average [2, 7]: 670.3 RLU
AKKKKK	–	2.5	442	176	–
CCCCCCCCc1ccc(C(=O)NCCC[N+](C)(C)CCCS(=O)(=O)[O-])cc1 [ASB-C8phn, 4-n-Octylbenzoylamido-propyl-dimethylammonio Sulfobetaine]	–	–	–	–	Abeta 42 RLU, 0 ng/mL Abeta 42 globulomer, Average [1]: 100.7 RLU; Abeta 42 RLU, 0.5 ng/mL Abeta 42 globulomer, Average [2]: 936.3 RLU; S/N Abeta 42 globulomer-spiked/Abeta 40 [2]: 1.4; S/N Abeta 42 globulomer-spiked/unspiked [2]: 9.3
link-FKFKKK: FKFKKK peptide reagent with linker to bead at the left end (FIG. 27) (not fully specified (N-terminus); also: attached to bead through link at left end)	able to capture globulomers	4.1	808	198	–
CCCCCCCCCCCCCCCC(=O)NCCC[N+](C)(C)CCCS(=O)(=O)[O-] [ASB-16, Amidosulfobetain-16,3-[N,N-Dimethyl-N-(3-palmitamidopropyl)ammonio]propane-1-sulfonate]	–	–	–	–	Abeta 42 RLU, 0 ng/mL Abeta 42 globulomer, Average [1]: 95.7 RLU; Abeta 42 RLU, 0.5 ng/mL Abeta 42 globulomer, Average [2]: 788.7 RLU; S/N Abeta 42 globulomer-spiked/Abeta 40 [2]: 2.8; S/N Abeta 42 globulomer-spiked/unspiked [2]: 8.2
KIGVVR	captured Abeta 1-42 globulomer at a high level that's similar to PSR1's globulomer capture level	–	–	–	background monomeric Abeta capture (noise) [4]: low levels of monomeric Abeta 1-40 noise similar to PSR1's
AAKKKA	–	1.6	247	159	–
KFKKKF	captured globulomers specifically	–	–	–	–
AAKKAA	–	1.1	159.5	147	–
Ac-KKKFKF: acetylated KKKFKF peptide conjugated to beads with the Ahx-Ahx-Cys-NH2 linker (Ac-KKKFKF[Ahx][Ahx]C-NH2; also: conjugated to beads via the linker)	captured globulomer specifically	–	–	–	–
FKFNLFSG	efficient at capturing globulomer	2.4	3230.5	1327.5	background monomeric Abeta capture (noise) [4]: captured significant amounts of background monomeric species
FKFKKK-link: FKFKKK peptide reagent with linker to bead at the right end; charge closest to the beads (FIG. 27) (not fully specified (C-terminus); printed as FKFKKK-link; also: attached to bead through link at right end)	significantly better than the remainder of the beads	5.7	1995	348	–
CCCCCCCC[N+](C)(C)CCCS(=O)(=O)[O-] [ZW3-08]	–	–	–	–	Abeta 42 RLU, 0 ng/mL Abeta 42 globulomer, Average [1]: 97.7 RLU; Abeta 42 RLU, 0.5 ng/mL Abeta 42 globulomer, Average [2]: 668.7 RLU; S/N Abeta 42 globulomer-spiked/Abeta 40 [2]: 0.9; S/N Abeta 42 globulomer-spiked/unspiked [2]: 6.8
KKKFKF-link: KKKFKF peptide reagent with linker to bead at the right end (FIG. 27) (not fully specified (C-terminus); also: attached to bead through link at right end)	able to capture globulomers	3.9	748	191.5	–
AAAKAA	–	0.8	113.5	134.5	–
ANFFAHSS	–	1.8	994.5	543	–
FKFSLFSG	efficient at capturing globulomer	1.5	3078.5	2011	background monomeric Abeta capture (noise) [4]: captured significant amounts of background monomeric species
DFKLNFKF	–	2	515.5	259.5	–
AKKKKA	significantly lower globulomer capture efficiency	2.1	322.5	155.5	–
